Earlier results in article PMC7511354.

Target: CYP2C9 (Homo sapiens) (UniProt P11712)
Sequence of UniProt P11712 (P11712 whole entry): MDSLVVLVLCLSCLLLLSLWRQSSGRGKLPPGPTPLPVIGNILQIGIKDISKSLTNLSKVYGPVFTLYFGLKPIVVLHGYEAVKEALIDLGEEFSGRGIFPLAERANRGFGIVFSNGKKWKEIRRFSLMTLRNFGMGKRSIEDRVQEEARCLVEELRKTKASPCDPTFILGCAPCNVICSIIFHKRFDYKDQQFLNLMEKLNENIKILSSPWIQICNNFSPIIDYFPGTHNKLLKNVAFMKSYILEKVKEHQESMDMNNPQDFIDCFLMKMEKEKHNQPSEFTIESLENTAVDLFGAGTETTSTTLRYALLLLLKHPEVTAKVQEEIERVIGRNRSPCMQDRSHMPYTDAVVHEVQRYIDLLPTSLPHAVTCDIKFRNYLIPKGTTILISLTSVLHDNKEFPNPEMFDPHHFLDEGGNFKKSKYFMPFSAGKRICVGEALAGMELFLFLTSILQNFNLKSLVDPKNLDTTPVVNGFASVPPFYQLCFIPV

- Kd: 794 nM
Substance: cytochrome b5 (from UniProt P00167)
